Experimental data: publication PMC11187106

Biological target: CtBP2(WT) (human) (UniProt P56545)
Experiment: SEC; analytical Superose 6 3.2/300 GL, 50 mM HEPES (pH 7.2), 150 mM NaCl; CtBP kept at 100 µM, RAI2 variants titrated at ratios 1:0.1 to 1:2; proteins also run alone; assembly stoichiometries estimated from the elution volumes

stoichiometry N: 4
Substance: CtBP2(WT), P56545 1-445 (natural protein; other documents disagree on this pair)
